Source: US20190071490A1, “Preventing Post-Ictal Headaches” (Beth Israel Deaconess Medical Center, Inc., priority 2017, published 2019)

Columns and labels:
[1] = test system: central trigeminovascular neurons (medullary dorsal horn); test: Seizure (picrotoxin)-induced activation of trigeminovascular neurons, single-unit recording; format: in vivo; details: rat
Description: Cortical electrodes were used to trace the magnitude, extent and progression of epileptiform seizures.
Single-unit recordings were obtained from neurons in the trigeminal ganglion and dorsal horn as described in previous studies (Burstein et al. (1998) J. Neurophysiol. 79: 964-82; Strassman and Levy (2006) J. Neurophysiol. 95: 1298-306; Strassman et al. (1996) Nature 384: 560-4; Zhang et al. (2010) J. Neurosci. 30: 8807-14; and Zhang et al. (2011) Ann. Neurol. 69: 855-65). Experiments were done in adult Sprague-Dawley rats (250 g to 350 g). Animals were anesthetized with urethane (1.2-1.5 g/kg), artificially ventilated with oxygen, and paralyzed. Body temperature was controlled, and end-tidal CO2 and oxygen saturation was monitored. For ganglion recordings, four separate craniotomies were made: over the contralateral cortex, to advance the microelectrode; over the ipsilateral parietal cortex, and the ipsilateral occipital cortex, for application of the picrotoxin and recording of electrocorticogram activity; and over the ipsilateral transverse sinus, for electrical and mechanical stimulation of dural afferents, and lidocaine application. For dorsal horn recording, the same craniotomies were made over the ipsilateral cortex and the ipsilateral transverse sinus, but no contralateral craniotomy was made. Instead, a laminectomy was made to expose the upper cervical spinal cord (C1-2) for microelectrode recording. In both the trigeminal ganglion and the dorsal horn recording experiments, the search stimulus for finding dura-sensitive neurons is single-shock electrical stimulation applied to the dura covering the transverse sinus.
Seizure was induced by application of picrotoxin to the surface of the cerebral cortex (10 μl, applied on a small piece of gelfoam, at a concentration of either 5 mM or 100 mM, for focal or generalized seizure, respectively). For verification of seizure induction, cortical activity was recorded with a glass micropipette (0.9% saline, ˜1 megohm, 7 μm tip) placed just below the surface of the cerebral cortex, at the parietal and the occipital site. […]

[2] = test system: first-order trigeminovascular neurons (A-delta and C-type meningeal nociceptors); test: Single-unit recording of first-order neurons in the trigeminal ganglion evoked by CSD; format: in vivo, rat; details: male rats
Experimental: CSD was induced by pinprick 4 hours after drug/isotype infusion.

[3] = test system: CSD-sensitized central trigeminovascular neurons (HT, WDR) in the spinal trigeminal nucleus; test: Activation and sensitization of trigeminovascular neurons by cortical spreading depression (CSD); format: in vivo, rat; details: for mean firing rate of HT neurons after CSD: 6 hours after 30 mg/kg i.v.; for mean firing rate of HT neurons before CSD: 4 hours after 30 mg/kg i.v.
Experimental: Cortical spreading depression (CSD) was induced mechanically by inserting a glass micropipette (tip diameter 25 μm) about 1 mm into the visual cortex for 10 sec. At a propagation rate of 3-5 mm/min, a single wave of CSD was expected to enter the neuronal receptive field within 1-2 min of cortical stimulation. For verification of CSD, cortical activity was recorded (electrocorticogram) with a glass micropipette (0.9% saline, ˜1 megohm, 7 um tip) placed just below the surface of the cerebral cortex (approximately 100 μm). The electrocorticogram electrode was positioned about 6 mm anterior to the visual cortex.
It was diluted in saline to a final dose of 30 mg/kg and administered intravenously (bolus injection, total volume 0.6-0.7 ml). A corresponding human IgG2 isotype control antibody (isotype-conAb) was also diluted in saline to a final dose of 30 mg/kg and administered intravenously (bolus injection, total volume 1.6-2.0 ml).
The experimental protocol included two parts. The first part was designed to compare CGRP-mAb vs isotype-conAb effects on spontaneous and induced activity of naïve trigeminovascular neurons, and the second part was designed to test CGRP-mAb vs isotype-conAb effects on the activation and sensitization of trigeminovascular neurons by CSD. Both parts included sampling of WDR and HT neurons in male and female rats. In the first part, the baseline neuronal profile was established by (a) mapping the dural, cutaneous and corneal receptive field; (b) measuring responses (mean spikes/sec) to mechanical stimulation of the dura (with a fixed force), skin (brush, pressure, pinch) and cornea (brush), and (c) measuring spontaneous firing rate (recorded over 30 min prior to treatment). Once the baseline was established, CGRP-mAb or isotype-conAb were administered and receptive fields were remapped, neuronal responses to stimulation of the dura, skin and cornea were re-examined, and the spontaneous activity rate was re-sampled at 1, 2, 3, and 4 hours post-treatment. The resulting values for each measure were then compared with the respective baseline values obtained before treatment. In the second part, CSD was induced 4 hours after administration of CGRP-mAb or isotype-conAb and 2 hours later (i.e., 6 hours after treatment) receptive field size, spontaneous activity rate, and response magnitude to stimulation of the dura, skin and cornea were measured again. The resulting post-CSD values for each measure were then compared with the respective pre-CSD values obtained at the 4-hour post-treatment time. This part was initiated only in cases in which the physiological condition of the rats (heart rate, blood pressure, respiration, end tidal CO2) and the neuronal isolation signal (signal-to-noise ratio ≥1:3) were stable at the 4-hour post-treatment time point.
To calculate the response magnitude to each stimulus, the mean firing frequency occurring before the onset of the first stimulus (30 min for spontaneous activity, 10 sec for mechanical stimulation of the dura, skin and cornea) was subtracted from the mean firing frequency that occurred throughout the duration of each stimulus. […] A neuron was considered activated when its mean firing rate after CSD exceeded its mean baseline activity by 2 standard deviations of that mean for a period >10 min, which translated to ≥33% increase in activity. […] Mean firing rates of respective values were compared using nonparametric statistics (Wilcoxon signed-ranks test). Two-tailed level of significance was set at 0.05.

[4] = male and female rats, case-by-case analysis

B1: G1: humanized monoclonal anti-CGRP antagonist antibody; heavy chain SEQ ID NO:11, light chain SEQ ID NO:12 (antibody)
heavy: EVQLVESGGGLVQPGGSLRLSCAASGFTFSNYWISWVRQAPGKGLEWVAEIRSESDASATHYAEAVKGRFTISRDNAKNSLYLQMNSLRAEDTAVYYCLAYFDYGLAIQNYWGQGTLVTVSSASTKGPSVFPLAPCSRSTSESTAALGCLVKDYFPEPVTVSWNSGALTSGVHTFPAVLQSSGLYSLSSVVTVPSSNFGTQTYTCNVDHKPSNTKVDKTVERKCCVECPPCPAPPVAGPSVFLFPPKPKDTLMISRTPEVTCVVVDVSHEDPEVQFNWYVDGVEVHNAKTKPREEQFNSTFRVVSVLTVVHQDWLNGKEYKCKVSNKGLPSSIEKTISKTKGQPREPQVYTLPPSREEMTKNQVSLTCLVKGFYPSDIAVEWESNGQPENNYKTTPPMLDSDGSFFLYSKLTVDKSRWQQGNVFSCSVMHEALHNHYTQKSLSLSPGK
light: EIVLTQSPATLSLSPGERATLSCKASKRVTTYVSWYQQKPGQAPRLLIYGASNRYLGIPARFSGSGSGTDFTLTISSLEPEDFAVYYCSQSYNYPYTFGQGTKLEIKRTVAAPSVFIFPPSDEQLKSGTASVVCLLNNFYPREAKVQWKVDNALQSGNSQESVTEQDSKDSTYSLSSTLTLSKADYEKHKVYACEVTHQGLSSPVTKSFNRGEC
[1]; 30 mg/kg i.v. four hours before induction of seizure, medullary dorsal horn, untreated 28/30
  neurons activated by the seizure (number/total): 2/13
[1]; 30 mg/kg i.v. four hours before induction of seizure, medullary dorsal horn, untreated 93%
  neurons activated by the seizure (percent): 15%
[1]; 30 mg/kg intravenously four hours before induction of seizure
  activation of central trigeminovascular neuron by seizure (FIG. 9): prevented the activation of a central trigeminovascular neuron but not the occurrence of a seizure
[2]
  activation of meningeal nociceptors by CSD (FIGS. 23A and 23B): prevents the activation of most a-delta and some C-type meningeal nociceptors
[2]; 30 mg/kg IV 4 hours before CSD
  C-fibers activated by CSD: 23%
  a-delta fibers activated by CSD: 14%
[2]; 30 mg/kg IV 4 hours before CSD, all first-order neurons
  neurons tested that were activated by CSD: 20%
[3]; case-by-case analysis
  difference between CGRP-mAb and isotype-conAb in HT neurons activated by CSD: 86%
  difference between CGRP-mAb and isotype-conAb in WDR neurons activated by CSD: 2%
[3]; female rats
  HT neurons with expansion of dural receptive fields after CSD (number/total): 0/6
  HT neurons with expansion of facial receptive fields after CSD (number/total): 0/6
  response of HT neurons to dural indentation with VFH before CSD: 10.5±1.6 spikes/sec
  mean firing rate of HT neurons before CSD: 3.3±1.7 spikes/sec
[3]; female rats, 6 HT neurons, p=0.51
  response of HT neurons to brushing the cornea after CSD vs before: remained unchanged
[3]; female rats, 2 hours after CSD
  mean firing rate of HT neurons after CSD: 5.0±3.4 spikes/sec
[3]; female rats, 2 hours after CSD, 6 hours after administration
  response of HT neurons to dural indentation with VFH after CSD: 8.1±6.4 spikes/sec
[3]; male and female rats, 2 hours after CSD, 6 hours after administration
  neuronal responses of HT neurons to brush, pressure and pinch after CSD vs before: remained unchanged
[3]; [4]
  HT neurons activated by CSD (number/total): 2/14
  WDR neurons activated by CSD (number/total): 5/13
[3]; male rats
  HT neurons with expansion of dural receptive fields after CSD (number/total): 2/8
  HT neurons with expansion of facial receptive fields after CSD (number/total): 2/8
  response of HT neurons to corneal stimulation after CSD: 9.4±1.8 spikes/sec
  response of HT neurons to corneal stimulation before CSD: 10.8±3.3 spikes/sec
  response of HT neurons to dural indentation with VFH before CSD: 1.8±0.6 spikes/sec
  mean firing rate of HT neurons before CSD: 1.2±0.6 spikes/sec
[3]; male rats, 2 hours after CSD
  mean firing rate of HT neurons after CSD: 1.9±1.5 spikes/sec
[3]; male rats, 2 hours after CSD, 6 hours after administration
  response of HT neurons to dural indentation with VFH after CSD: 1.9±1.5 spikes/sec
